Reference: patent US10738094B2, “Peptides and combination of peptides for use in immunotherapy against ovarian cancer and other cancers” (immatics biotechnologies GmbH, priority 2015, dated 2020)

What was measured:
CD8+ T cells = experiment: In vitro immunogenicity for MHC class I presented peptides (priming of CD8+ T cells with aAPCs, pMHC multimer staining); assay type: cell-based, human; conditions: for Wells positive [%]: HLA-A*02 restricted peptides, positive wells among evaluable
Source text: In order to obtain information regarding the immunogenicity of the TUMAPs of the present invention, the inventors performed investigations using an in vitro T-cell priming assay based on repeated stimulations of CD8+ T cells with artificial antigen presenting cells (aAPCs) loaded with peptide/MHC complexes and anti-CD28 antibody.
In order to perform in vitro stimulations by artificial antigen presenting cells loaded with peptide-MHC complex (pMHC) and anti-CD28 antibody, the inventors first isolated CD8+ T cells from fresh HLA-A*02 leukapheresis products via positive selection using CD8 microbeads (Miltenyi Biotec, Bergisch-Gladbach, Germany) of healthy donors obtained from the University clinics Mannheim, Germany, after informed consent.
PBMCs and isolated CD8+ lymphocytes were incubated in T-cell medium (TCM) until use consisting of RPMI-Glutamax (Invitrogen, Karlsruhe, Germany) supplemented with 10% heat inactivated human AB serum (PAN-Biotech, Aidenbach, Germany), 100 U/ml Penicillin/100 μg/ml Streptomycin (Cambrex, Cologne, Germany), 1 mM sodium pyruvate (CC Pro, Oberdorla, Germany), 20 μg/ml Gentamycin (Cambrex). 2.5 ng/ml IL-7 (PromoCell, Heidelberg, Germany) and 10 U/ml IL-2 (Novartis Pharma, Nürnberg, Germany) were also added to the TCM at this step.
Generation of pMHC/anti-CD28 coated beads, T-cell stimulations and readout was performed in a highly defined in vitro system using four different pMHC molecules per stimulation condition and 8 different pMHC molecules per readout condition.
The purified co-stimulatory mouse IgG2a anti human CD28 Ab 9.3 (Jung et al., 1987) was chemically biotinylated using Sulfo-N-hydroxysuccinimidobiotin as recommended by the manufacturer (Perbio, Bonn, Germany). Beads used were 5.6 μm diameter streptavidin coated polystyrene particles (Bangs Laboratories, Illinois, USA).
pMHC used for positive and negative control stimulations were A*0201/MLA-001 (peptide […] (SEQ ID NO. 664) from modified Melan-A/MART-1) and A*0201/DDX5-001 ([…] from DDX5, SEQ ID NO. 665), respectively.
800,000 beads/200 μl were coated in 96-well plates in the presence of 4×12.5 ng different biotin-pMHC, washed and 600 ng biotin anti-CD28 were added subsequently in a volume of 200 μl. Stimulations were initiated in 96-well plates by co-incubating […] CD8+ T cells with 2×10^5 washed coated beads in 200 μl TCM supplemented with 5 ng/ml IL-12 (PromoCell) for 3 days at 37° C. Half of the medium was then exchanged by fresh TCM supplemented with 80 U/ml IL-2 and incubating was continued for 4 days at 37° C. This stimulation cycle was performed for a total of three times. For the pMHC multimer readout using 8 different pMHC molecules per condition, a two-dimensional combinatorial coding approach was used as previously described (Andersen et al., 2012) with minor modifications encompassing coupling to 5 different fluorochromes. Finally, multimeric analyses were performed by staining the cells with Live/dead near IR dye (Invitrogen, Karlsruhe, Germany), CD8-FITC antibody clone SK1 (BD, Heidelberg, Germany) and fluorescent pMHC multimers. For analysis, a BD LSRII SORP cytometer equipped with appropriate lasers and filters was used. Peptide specific cells were calculated as percentage of total CD8+ cells. Evaluation of multimeric analysis was done using the FlowJo software (Tree Star, Oreg., USA). In vitro priming of specific multimer+ CD8+ lymphocytes was detected by comparing to negative control stimulations.
Exemplary flow cytometry results after TUMAP-specific multimer staining for two peptides of the invention are shown in FIG. 3 together with corresponding negative controls.

HLA-A*02:01 = HLA-A*02:01 (Homo sapiens, UniProt P04439, D140Y/D185E/D98H/E176V/E277Q/G131W/G231S/I119V/I121R/I166T/I218V/L300P/L318F/N151K/N90K/P208A/P217A/Q86G/Q94H/R138H/R169H/T345S); experiment: MHC binding assay (UV-ligand exchange, beta2m ELISA); conditions: binding to HLA-A*02:01 ranged by peptide exchange yield (UV-ligand exchange, β2m ELISA)
Summary of the method: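 Stabilised complexes were quantified via their β2m light chain: 100-fold-diluted monomers bound to streptavidin plates, then HRP anti-β2m at 2 ug/ml for 1 h at 37° C., TMB read at 450 nm. The value is the yield of UV-induced exchange of a photocleavable peptide for the candidate.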

Substance | Wells positive [%] (CD8+ T cells) | Peptide exchange (HLA-A*02:01) | in vitro immunogenicity: donors (CD8+ T cells; percentage of positive donors)
2 (SLLEADPFL; listed as Homo sapiens) [compound 2] | “+” (<20% = +) | “+++” (≥50 = +++) | 
3 (SLASKLTTL; listed as Homo sapiens) [compound 3] | “+” (<20% = +) | “++++” (≥75% = ++++) | 
8 (FTLGNVVGMYL; listed as Homo sapiens) [compound 8] | “+” (<20% = +) | “++++” (≥75% = ++++) | 
11 (KIFEMLEGV; listed as Homo sapiens) [compound 11] | “+” (<20% = +) | “+++” (≥50 = +++) | 
36 (YVLEDLEVTV; listed as Homo sapiens) [compound 36] | “+” (<20% = +) | “++” (≥20% = ++) | 
38 (FLLEDDIHVS; listed as Homo sapiens) [compound 38] | “+” (<20% = +) | “+++” (≥50 = +++) | 
48 (ALAELYEDEV; listed as Homo sapiens) [compound 48] | “+” (<20% = +) | “+++” (≥50 = +++) | 
56 (KLYEGIPVLL; listed as Homo sapiens) [compound 56] | “+” (<20% = +) | “++++” (≥75% = ++++) | 
60 (SLTIDGIYYV; listed as Homo sapiens) [compound 60] | “++++” (>=70% = ++++) | “++++” (≥75% = ++++) | 
79 (SLFIGEKAVLL; listed as Homo sapiens) [compound 79] | “+” (<20% = +) | “+++” (≥50 = +++) | 
113 (GLLPTPLFGV; listed as Homo sapiens) [compound 113] | “+” (<20% = +) | “+++” (≥50 = +++) | 
118 (KLIDNNINV; listed as Homo sapiens) [compound 118] | “+” (<20% = +) | “+++” (≥50 = +++) | 
141 (YLDFSNNRL; listed as Homo sapiens) [compound 141] | “+” (<20% = +) | “++” (≥20% = ++) | 
143 (LLLDITPEI; listed as Homo sapiens) [compound 143] | “+” (<20% = +) | “++++” (≥75% = ++++) | 
150 (RLWEEGEELEL; listed as Homo sapiens) [compound 150] | “+” (<20% = +) | “+++” (≥50 = +++) | 
166 (YLNHLEPPV; listed as Homo sapiens) [compound 166] | “++++” (>=70% = ++++) | “+++” (≥50 = +++) | 
199 (ALQDVPLSSV; listed as Homo sapiens) [compound 199] | “+” (<20% = +) | “+++” (≥50 = +++) | 
247 (VLLPNDLLEKV; listed as Homo sapiens) [compound 247] | “+” (<20% = +) | “+++” (≥50 = +++) | 
319 (SLEPQIQPV; listed as Homo sapiens) [compound 319] | “+” (<20% = +) | “++” (≥20% = ++) | 
384 (ILFANPNIFV; listed as Homo sapiens) [compound 384] | “+” (<20% = +) | “+++” (≥50 = +++) | 
443 (GLWEIENNPTV; listed as Homo sapiens) [compound 443] | “+” (<20% = +) | “+++” (≥50 = +++) | 
460 (AMLEKNYKL; listed as Homo sapiens) [compound 460] | “+” (<20% = +) | “++++” (≥75% = ++++) | 
489 (KMWEELPEVV; listed as Homo sapiens) [compound 489] | “+” (<20% = +) | “+++” (≥50 = +++) | 
499 (KIFDIDEAEEGV; listed as Homo sapiens) [compound 499] | “+” (<20% = +) | “++” (≥20% = ++) | 
511 (FLDPYCSASV; listed as Homo sapiens) [compound 511] | “+” (<20% = +) | “++” (≥20% = ++) | 
603 (FLIEPEHVNTV; listed as Homo sapiens) [compound 603] | “+” (<20% = +) | “++” (≥20% = ++) | 
623 (YLVEDIQHI; listed as Homo sapiens) [compound 623] |  | “+++” (≥50 = +++) | 
635 (SLDSTLHAV; listed as Homo sapiens) [compound 635] |  | “+++” (≥50 = +++) | 
652 (TLWYRAPEV; listed as Homo sapiens) [compound 652] |  |  | ++++ (>=70% = ++++)
